The target in this assay is GFP 1-10 OPT (Aequorea victoria) [GFP: P42212]. Briefly: cell-based or functional assay.

Regarding “HPS-GFP 11 M2 (3-hexulose 6-phosphate synthase fused to GFP S11 M2; L221H, F223S, T225N)”, the complementation rate (fold (decrease)) is 5.

The values above are taken from US20060257887A1.
